Reference: the supplement of paper PMC6757056
± gives the standard deviation of the averaged measurements.

B1: library; a variant is named by its letters at N, in order (parent)
chain: GCUGUCACCGGUGUAUUACCCUAGUGGUCGACCGGUCUGAUGAGUCUNNNNNNAGACGAAACAGC

How the values were obtained:
hypoxanthine [1] = variants of: B1; assay: normalized RNA/DNA level with ligand (relative to sTRSVctl = 100) (log10 (% of sTRSVctl)); ligand: hypoxanthine (xanthine aptamer); higher = less ribozyme self-cleavage, higher mRNA level; details: ligand concentration (+) RNA-Seq: 5 mM, HEK293T, reporter: mCherry (pCS4076), ligand present: yes
Outline: (§1)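 Total RNA, extracted with EDTA 72 h after HEK293T cells were transfected with 4 µg per 6-well well of reporter-linked ribozyme switch library plasmids, was reverse-transcribed, amplified, barcoded and sequenced. Ligand, if used, was added 1 h before transfection. RNA level was derived from RNA reads divided by DNA reads and normalized to a spiked-in non-cleaving sequence or to the top sequences. This was multiplied by 100 and log10-transformed, with the top set of 25 sequences and a ≥100 DNA read minimum.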

hypoxanthine [2] = variants of: B1; assay: normalized RNA/DNA level without ligand (relative to sTRSVctl = 100) (log10 (% of sTRSVctl)); ligand: hypoxanthine (xanthine aptamer); higher = less ribozyme self-cleavage, higher mRNA level; details: HEK293T, reporter: mCherry (pCS4076), ligand present: no
Outline: as §1

| Variant | normalized RNA/DNA level with ligand (log10) (hypoxanthine [1]) | normalized RNA/DNA level without ligand (log10) (hypoxanthine [2]) |
| --- | --- | --- |
| AGGUCC | 1.962 ± 0.017 | 1.856 ± 0.0097 |
| AGGUCU | 1.95 ± 0.028 | 1.813 ± 0.013 |
| GGUUUC | 1.946 ± 0.011 | 1.916 ± 0.0058 |
| UGUGGC | 1.99 ± 0.04 | 1.8784 ± 0.00098 |
| UGUGGU | 1.89 ± 0.037 | 1.68 ± 0.017 |
| UGUGGG | 1.93 ± 0.014 | 1.64 ± 0.035 |
| AGUGCA | 1.92 ± 0.051 | 1.78 ± 0.03 |
| AGUGCU | 1.998 ± 0.013 | 1.85 ± 0.023 |
| AGUGCG | 1.84 ± 0.02 | 1.365 ± 0.0051 |
| AGUGCC | 1.94 ± 0.033 | 1.838 ± 0.0064 |
| GGUUCU | 1.977 ± 0.018 | 1.9 ± 0.022 |
| GGUUCG | 1.92 ± 0.063 | 1.69 ± 0.051 |
| GGUUCA | 1.916 ± 0.0031 | 1.89 ± 0.046 |
| GGUUCC | 1.99 ± 0.081 | 1.95 ± 0.022 |
| AGGGUG | 1.886 ± 0.012 | 1.54 ± 0.09 |
| UGUUGA | 1.9 ± 0.021 | 1.674 ± 0.0081 |
| UGUUGG | 1.91 ± 0.058 | 1.53 ± 0.04 |
| UGUUGC | 1.943 ± 0.015 | 1.87 ± 0.051 |
| CGUUCC | 1.98 ± 0.032 | 1.913 ± 0.017 |

| Variant | normalized RNA/DNA level with ligand (log10) (hypoxanthine [1]) | normalized RNA/DNA level without ligand (log10) (hypoxanthine [2]) |
| --- | --- | --- |
| CGUUCG | 1.9 ± 0.025 | 1.84 ± 0.052 |
| CGUUCA | 1.974 ± 0.012 | 1.758 ± 0.014 |
| CGUUCU | 1.97 ± 0.046 | 1.843 ± 0.012 |
| AGUCAG | 1.86 ± 0.13 | 1.64 ± 0.041 |
| AGUCAA | 1.89 ± 0.051 | 1.8 ± 0.035 |
| AGUCAC | 1.94 ± 0.06 | 1.883 ± 0.014 |
| UGUUUA | 1.942 ± 0.0063 | 1.88 ± 0.035 |
| CGGUGG | 1.862 ± 0.011 | 1.37 ± 0.032 |
| CGGUGC | 1.96 ± 0.052 | 1.8 ± 0.051 |
| CGGUGA | 1.93 ± 0.042 | 1.57 ± 0.042 |
| CGUCCU | 2.02 ± 0.035 | 2.02 ± 0.048 |
| CGUCCA | 1.957 ± 0.0057 | 1.924 ± 0.0032 |
| CGUCCC | 1.97 ± 0.051 | 1.98 ± 0.064 |
| UGUGUC | 1.98 ± 0.041 | 1.958 ± 0.0027 |
| UGUGUU | 1.95 ± 0.071 | 1.887 ± 0.0068 |
| UGUGUA | 1.92 ± 0.032 | 1.79 ± 0.058 |
| AGUAGG | 1.78 ± 0.051 | 1.368 ± 0.013 |
| AGUAGC | 1.911 ± 0.012 | 1.64 ± 0.08 |
| GGGUUC | 1.95 ± 0.053 | 1.91 ± 0.095 |

| Variant | normalized RNA/DNA level with ligand (log10) (hypoxanthine [1]) | normalized RNA/DNA level without ligand (log10) (hypoxanthine [2]) |
| --- | --- | --- |
| GGGUUU | 1.951 ± 0.015 | 1.951 ± 0.0082 |
| GGUCAU | 1.94 ± 0.037 | 1.89 ± 0.041 |
| GGUCAG | 1.94 ± 0.023 | 1.69 ± 0.012 |
| GGUCAA | 1.94 ± 0.036 | 1.83 ± 0.034 |
| CGGGGG | 1.86 ± 0.032 | 1.25 ± 0.059 |
| CGGGGU | 1.99 ± 0.0036 | 1.908 ± 0.0053 |
| CGGGGA | 1.97 ± 0.097 | 1.76 ± 0.035 |
| UGUAAA | 1.9212 ± 0.0013 | 1.802 ± 0.015 |
| UGUAAC | 1.914 ± 0.013 | 1.81 ± 0.024 |
| UGUAAU | 1.91 ± 0.055 | 1.816 ± 0.012 |
| AGUGGU | 1.898 ± 0.015 | 1.55 ± 0.056 |
| AGUGGG | 1.89 ± 0.076 | 1.543 ± 0.007 |
| CGUCUA | 1.93 ± 0.025 | 1.87 ± 0.029 |
| CGUCUG | 1.95 ± 0.11 | 1.957 ± 0.013 |
| CGUCUC | 2 ± 0.023 | 2.03 ± 0.017 |
| CGUCUU | 2.01 ± 0.035 | 1.958 ± 0.018 |
| CGGUCG | 1.9971 ± 7.8e-05 | 1.87 ± 0.023 |
| CGGUCA | 2.011 ± 0.012 | 1.8 ± 0.026 |
| CGGUCC | 2 ± 0.059 | 1.88 ± 0.066 |
